From US20180243244A1
Read-outs that look alike come from different tables or passages of the source. No end group written: not given here.

Legend:
[1] = biological target: p62 (Homo sapiens (Human)), Q13501; test: X-peptide pull down of in vitro transcribed and translated p62, Western blot
p62-D3-GST, Q13501 [2] = biological target: p62-D3-GST, Q13501
p62-D3-GST, Q13501 [3] = biological target: p62-D3-GST, Q13501; remark: listed apart in the source
p62-D3-GST, Q13501 [4] = test: SPR (Biacore), legend of FIG. 6

Binder | efficiency of precipitating p62 [1] | fold binding force against N-recognins containing a URB box (p62-D3-GST, Q13501 [2]) | Kd (p62-D3-GST, Q13501 [3]) | koff (p62-D3-GST, Q13501 [3]) | kon (p62-D3-GST, Q13501 [3]) | Kd (p62-D3-GST, Q13501 [4]) | Kd (p62-D3-GST, Q13501 [2])
RIFSTIEGRTYK (not fully specified) [R11 peptide (biotin-labeled X-peptide with N-terminal Arg)] | > 40% | 50 times | 44 nM | 0.0005 s⁻¹ | 12300 M⁻¹ s⁻¹ | 40 nM | 
FIFSTIEGRTY (not fully specified) [F11 peptide (biotin-labeled X-peptide with N-terminal Phe)] | 5% |  | 3440 nM | 0.0019 s⁻¹ | 550 M⁻¹ s⁻¹ |  | 3400 nM
